{"source": "patent US20240117061A1", "key": {"[1]": {"target": "recombinant cynomolgus monkey BCMA-huFc (cynomolgus monkey; human)", "sequence (chain, as listed by the source limits assumed)": "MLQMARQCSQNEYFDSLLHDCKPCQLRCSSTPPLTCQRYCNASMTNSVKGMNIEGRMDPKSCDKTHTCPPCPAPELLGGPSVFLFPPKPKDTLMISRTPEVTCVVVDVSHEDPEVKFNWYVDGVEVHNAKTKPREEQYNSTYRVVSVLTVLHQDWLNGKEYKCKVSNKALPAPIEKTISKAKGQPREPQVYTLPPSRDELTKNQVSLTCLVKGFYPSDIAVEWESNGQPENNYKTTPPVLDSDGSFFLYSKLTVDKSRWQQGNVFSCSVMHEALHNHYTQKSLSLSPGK", "test": "ELISA, hybridoma supernatant, dilution 1:81, immobilized cynoBCMA-huFc"}, "[2]": {"target": "recombinant cynomolgus monkey BCMA-huFc (cynomolgus monkey; human)", "test": "ELISA, hybridoma supernatant, dilution, immobilized cynoBCMA-huFc"}, "[3]": {"target": "recombinant cynomolgus monkey BCMA-huFc (cynomolgus monkey; human)", "test": "ELISA, hybridoma supernatant, dilution 1:243, immobilized cynoBCMA-huFc"}, "[4]": {"target": "recombinant cynomolgus monkey BCMA-huFc (cynomolgus monkey; human)", "test": "ELISA, hybridoma supernatant, dilution 1:27, immobilized cynoBCMA-huFc"}, "[5]": {"target": "recombinant cynomolgus monkey BCMA-huFc (cynomolgus monkey; human)", "test": "ELISA, hybridoma supernatant, dilution 1:729, immobilized cynoBCMA-huFc"}, "[6]": {"target": "recombinant cynomolgus monkey BCMA-huFc (cynomolgus monkey; human)", "test": "ELISA, hybridoma supernatant, dilution 1:2187, immobilized cynoBCMA-huFc"}, "[7]": {"target": "recombinant cynomolgus monkey BCMA-huFc (cynomolgus monkey; human)", "test": "ELISA, hybridoma supernatant, dilution 1:9, immobilized cynoBCMA-huFc"}, "[8]": {"target": "recombinant cynomolgus monkey BCMA-huFc (cynomolgus monkey; human)", "test": "ELISA, hybridoma supernatant, stock solution, immobilized cynoBCMA-huFc"}}}
{"binder": "mouse monoclonal antibody 202E11H10E3 (antibody, V domains shown) VH: QVQLQQSDAELVKPGTSVKISCKVSGYTFTDHTIHWMKQRPEQGLEWIGYIYPRNGNTKYNEKFKGKATLTADKSSSTAYMHLNSLTSEDSAVYFCARYDYDGYFDVWGTGTTVTVSS VL: DVVMTQTPLSLPVSLGDQASISCRSSQSHVHSDGHTYLHWYLQKPGQSPELLIYKVSNRFSGVPDRFSGSGSGTDFTLKISRVEAEDLGVYFCSQNTHFPWTFGGGTKLEIK", "values": [{"measurement": "ELISA result", "setting": "[1]", "result": 0.14}, {"measurement": "ELISA result", "setting": "[2]", "result": 0.31}, {"measurement": "ELISA result", "setting": "[3]", "result": 0.15}, {"measurement": "ELISA result", "setting": "[4]", "result": 0.15}, {"measurement": "ELISA result", "setting": "[5]", "result": 0.13}, {"measurement": "ELISA result", "setting": "[6]", "result": 0.12}, {"measurement": "ELISA result", "setting": "[7]", "result": 0.18}, {"measurement": "ELISA result", "setting": "[8]", "result": 0.75}]}
